Tested on: MS2 coat protein
Test: apparent KD of MS2 coat protein; designed switch direction (-1 OFF switch, 1 ON switch): 1; higher = weaker reporter binding
In short: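 Designed RNA switches with common flanks were made on Illumina chips by stalled E. coli RNA polymerase. Titration with SNAP-549-labelled MS2 coat protein doubled from 0.7 or 1.5 nM up to 3 µM. Apparent KD is each design's median over clusters after curve-fitting normalised fluorescence.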

[1] = Eterna round: R95, input ligand: microRNA oligo, concentration not stated
[2] = input ligand: microRNA oligo, concentration not stated
[3] = Eterna round: R95, input ligand: FMN 200 uM
[4] = Eterna round: R95, input ligand: none

Sequence	apparent KD of MS2 coat protein [1] [nM]	apparent KD of MS2 coat protein (input ligand: FMN 200 uM) [nM]	apparent KD of MS2 coat protein [2] [nM]	apparent KD of MS2 coat protein (input ligand: none) [nM]	apparent KD of MS2 coat protein [3] [nM]	apparent KD of MS2 coat protein [4] [nM]
GUUAUACAUGAGGAUCACCCAUGUCAAUGUAGUCGAGGAUAUGGGCAGCUAUGAGGCGUACUAGAAGGCGAUGAGU [JL-ss1-3.14 ViennaUCT mod] (puzzle: Same State 1)	122	–	–	–	–	–
AGCUAAAACGAAGGAUAUACAGACAUGAGGAUCACCCAUGUAUACAUGAUUUAUUGUGAUCACAUGUAGAAGGUCGUACUAACA [SameState NG2 #20] (Eterna round: R96, puzzle: Same State NG 2)	–	190	649	681	–	–
UGUUGUAUUACAGGAUAUCUAUUAGUUUAAUUUAGAGAAGGGUAUUCACAUGAGGAUCACCCAUGUAUAUACGAGGAAGUUGUG [JMF's solution 93] (Eterna round: R96, puzzle: Same State NG 1)	–	–	39.5	–	–	–
AAAAGACAGGCAGGAUAUGGGCCUGGCUCUGAUAUCAGAGCCUACACAUGAGGAUCACCCAUGUCCCAGAAGGGCCUGUAGAAG [Cetiriqu] (Eterna round: R96, puzzle: Same State NG 2)	–	19.4	65.3	79.1	–	–
CUCAAAACAAGUUGCAGUGUUCGUCUUUAACAUGAGGAUCACCCAUGUAAUAGCCCGGUGGAAGCGCUCGGGCUACC [Edtireisge] (puzzle: Sensor for hsa-mir-208a)	24	–	–	–	39.8	45.5
UGUCCAGCCUGAGCUGGACAAAAGCAUGUACAUGAGGAUCACCCAUGUUCAUGUACAAGCUUUUUGCUCGUCUUAAU [salish99_208a_r3_031] (puzzle: Sensor for hsa-mir-208a)	14.1	–	–	–	497	445
ACGCAGCUGGGCUAGGAUAUCGGUGGUAAAACAUGAGGAUCACCCAUGUCCGAAGCUCGGACUUCCGAGAAGGAGCCCGGCUGCG [Soinraesar Omei Mod 9] (puzzle: Same State 2)	253	–	–	–	34.1	481
CCUUAGUACAAUUUAGAUCUACAUGAGGAUCACCCAUGUACUGAGGAUAUCAGCUCGAUUAGAGCUGAGAAGGCAGAAGUACUU [SSNG3/7-A2] (Eterna round: R96, puzzle: Same State NG 3)	–	90.9	122	144	–	–
AGCGAGAUAGGCAAGGAUAUGCUGAGGUGCACAUGAGGAUCACCCAUGUCAGUGGCGAAAGCGAAGCAGAAGGUGCAUUCUCUUU [ak fifth] (puzzle: Same State 2)	190	–	–	–	27.1	332
CGAAAGAAGCGAGGAUAUGCAGAGGAUCACCCUGCAGAAGGCGCAAAAGCGAGGAUAUGCAGAGGAUCACCCUGCAGAAGGCGC [pwkr ssNG DX.32] (Eterna round: R96, puzzle: Same State NG 1)	–	20.2	20.5	18.1	–	–
GGAAUAUGAUGUUACAUGAGGAUCACCCAUGUAGUGAUAACUAAGGAUAUCUGAAAGGAAGGAGAGGAGAAGGUAGGAUCAUAA [AK SSNG3-V2-13] (Eterna round: R96, puzzle: Same State NG 3)	–	40.1	35.3	53.2	–	–
UGAAUAAUGAUAGGAUAUACAUGAGGAAUCCUCGUAGAAGGAUCAUGACAUGAGGAUCACCCAUGUAGCGCUCAGAAGAGCGCA [Mat - Same State NG 1 - JL mod - D51] (Eterna round: R96, puzzle: Same State NG 1)	–	160	76.7	191	–	–
CCAUGGUAACAUGAGGAUCACCCAUGUACAAGCUUUUUGCUCGGUUUUAUCCCGGGCCCGGAUUACACGGGCCCGGG [Initial Design] (puzzle: Sensor for hsa-mir-208a version 2)	50.7	–	–	–	41.4	33.6
UUAAUUAGUUGAGGAUAUUAUGUCGACUGAGACGACAUGAGGAUCACCCAUGUGAGAAGUGGUUUUAAGAAGGCAACAUUCAUA [JR_SSNG2_Sub088] (Eterna round: R96, puzzle: Same State NG 2)	–	55.9	83	141	–	–
UGGUACAUGGGAGGAUAUGGGCAUGAGACAUGAGGAUCACCCAUGUAUUAUAAGCCGAAAGGCAUCUAGAAGGCCCAUGUACCU [JL SSNG1 3.84] (Eterna round: R96, puzzle: Same State NG 2)	–	14.2	68.3	92.4	–	–
AACAAUCUAUCUGAGGAUAUCAUGAAAUAAACAUGAGGAUCACCCAUGUGCAGGAAAACUGCAUAUGAGAAGGCAGAUAUAUUGA [salish99_ss2_r3_055] (puzzle: Same State 2)	1160	–	–	–	104	4700

Sequence	apparent KD of MS2 coat protein [1] [nM]	apparent KD of MS2 coat protein (input ligand: FMN 200 uM) [nM]	apparent KD of MS2 coat protein [2] [nM]	apparent KD of MS2 coat protein (input ligand: none) [nM]	apparent KD of MS2 coat protein [3] [nM]	apparent KD of MS2 coat protein [4] [nM]
GCUCGAUGAGCGUUCUACAUGAGGAUCACCCAUGUUCGUGGGCAGGAUAUUUACGUGCAGAGUGUAGAGAAGGGCCCAUCGAGC [SameState NG3 #67] (Eterna round: R96, puzzle: Same State NG 3)	–	1260	270	196	–	–
UUUAUAUUCAGAGGAUAUUAAUGUAGUAUAAUAUAAGAAGGCUGUUUGUUUUGUAAAGUUAUUAUACAUGAGGAUCACCCAUGU [JR_SSNG1_Sub083] (Eterna round: R96, puzzle: Same State NG 1)	–	–	13.5	–	–	–
GGUAGGUUACUACCAAACAUGAGGAUCACCCAUGUAAAUGGGAAGGAUAUGGUACCUAUUUGGUACCAGAAGGUCUAAAUAAUU [Mat - Same State NG 3 - JL Mod - D94] (Eterna round: R96, puzzle: Same State NG 3)	–	392	821	1020	–	–
CCUUCGGGAGUAGGAUAUGUAGGAUAUGCCUACAUGAGGAUCACCCAUGUUCGCAUGGCAGAAGGACAGAAGGACACGUUCGCG [pwkr ssNG2 2FMN + 1F5.13] (Eterna round: R96, puzzle: Same State NG 2)	–	95.4	287	652	–	–
UCGGGCGUACUUGCUGACAUGAGGAUCACCCAUGUGCUUGGGAAGGAUAUGGUUCCGUUUCGGUUCCAGAAGGUCCUGGCUGCU [salish99_SSNG3_r04_316] (Eterna round: R96, puzzle: Same State NG 3)	–	116	47	79.8	–	–
GCUCGACGUAUUGUCUACAUGAGGAUCACCCAUGUAGGUGCGGAGGAUAUUUACGUGUCUCAUGUAGAGAAGGCCGUGUCGAGC [SameState NG3 #96] (Eterna round: R96, puzzle: Same State NG 3)	–	37.1	216	329	–	–
GCUGCAUGGGCAGGAUAUGGGUUCAGAGCGGAAGUGCGCUUUGAUACAUGAGGAUCACCCAUGUCCCAGAAGGGCCCAAGCGGC [Laleinza] (Eterna round: R96, puzzle: Same State NG 2)	–	18.4	53.7	97.3	–	–
GCAUCACAUGAGGAUCACCCAUGUCUUCGGAGUCGAGGAUAUGGUCACUGUAAACAGUGGCCAGAAGGCGAGGUGC [SS1 - Son of Teenbexe v4] (puzzle: Same State 1)	53.4	–	–	–	–	–
CCUUAGUACAAUUUAGAUCUACAUGAGGAUCACCCAUGUACUGAGGAUAUCAGCUCGUUUAGAGCUGAGAAGGCAGAAGUACUU [SSNG3/7-A3] (Eterna round: R96, puzzle: Same State NG 3)	–	75.1	67.6	140	–	–
CUACUACAUGAGGAUCACCCAUGUUGGAGUGAUGCAGGAUAUGUGUGACCAGAAGAUGAAACAGAAGGGCAAAGAA [JR_SS!_Sub003] (puzzle: Same State 1)	68	–	–	–	41.9	96.2
CAUCUAUACGUAGGAUAUGUAGGAUAUUCCUACAUGAGGAUCACCCAUGUUCGCAUGGAAGAAGGACAGAAGGACGAACUACUU [pwkr ssNG2 2FMN + 1F5.7] (Eterna round: R96, puzzle: Same State NG 2)	–	320	144	21.5	–	–
AGCUUACAUGAGGAUCACCCAUGUAGGAAGUACAUAGGAUAUCACCAAAUGGUCGACAUGUGAGAAGGGUGGAAGU [Usarle] (puzzle: Same State 1)	19.4	–	–	–	16.2	13.5
UUCCCAGCGGGAGGAUAUGGUGCCUUGUUGGUGCUAGAAGGUCCAACAUGAGGAUCACCCAUGUGGGAGUGGUUGAGAGACCUC [SS NG10LRO11] (Eterna round: R96, puzzle: Same State NG 1)	–	225	200	274	–	–
GCCUCUGCUCCACAGGAUAUGCGCUGUUGUACAUGAGGAUCACCCAUGUGCAGCCGACCAGAGCUGCAGAAGGGUGAGAGAGAGU [Atisanesxe] (puzzle: Same State 2)	253	–	–	–	28.6	243
CGAACACGUUGAGGAUAUGCAGAGGAUCACCCUGUAGAAGGCAACAGAUGAGGAUAUGCAGAGGAUCACCCUGUAGAAGGCAAC [pwkr ssNG DX.5] (Eterna round: R96, puzzle: Same State NG 1)	–	54.3	68.6	116	–	–
